The values below come from patent publication US9725702B2, “Laccase from ganoderma lucidum capable of enhancing enzymatic degradation of lignocellulolytic biomass” (DANMARKS TEKNISKE UNIVERSITET, priority 2012, dated 2017).

Series [1] is described as follows: Laccase activity assay with ABTS; influence of pH and temperature. Type of series: biochemical. The text has this:
FIG. 8. A surface response plot of the relative activity (U/mL) of the LacGL1 laccase expressed in Pichia pastoris as a function of pH and temperature. The effect of the pH and temperature on the LacGL1 laccase activity, expressed from P. pastoris, was modeled via randomized, full factorial, statistically designed experiment—MODDE program version 7.0.0.1 (Umetrics, Umeå, Sweden). The statistical design consisted of 12 experiments, including a triplicate repetition at the center point (pH 5 and 40° C.), using ABTS as a substrate. The influence of the temperature and pH was monitored between 25-55° C. and pH 4-6 (for 0.1 M citrate-phosphate buffer), respectively. The mixture with the ABTS and buffer at the defined pH value was incubated for 5 min. in a thermocycler set to a desired temperature and afterwards added to a previously pre-diluted enzyme in a microtiter plate which was incubated for 1 min. in a microtiter plate reader set to a desired temperature. After mixing the substrate and buffer with the enzyme, the initial rate of the product formation was measured as described above. The volumes and concentrations of enzyme, substrate, and buffer were identical as for the laccase activity assay.
The laccase activity was measured based on a modified method of Ters et al. (2009). The laccase activity was defined as the amount of the enzyme required to oxidise 1 μmol of ABTS per minute at 25° C., and pH 4.7. The assay mixture contained: 0.1 M citrate-phosphate buffer (255 μL, pH 4.7), ABTS (5 μL, 4 mM (ABTS stock solution)), and pre-diluted laccase (5 μL) that ensured the linear range of Michaelis-Menten kinetics. The oxidation of ABTS was monitored at 420 nm (ε420=36800 M^−1cm^−1) for 2 min. in an Infinite 200 microtiter plate reader (Tecan, Salzburg, Austria). Laccase activity assays on the substrates: hydroquinone (248 nm), 2.6-dimethoxyphenol (470 nm), and guaiacol (436 nm) was done similarly with the substrate concentration as described in Table 2 using the following extinction coefficient values: 17.542 M^−1cm^−1, 35.645 M^−1cm^−1, and 6.400 M^−1cm^−1, respectively (Minussi et al. 2007). The data collection was monitored by the program Tecan i-control version 1.5.14.0 (Tecan, Salzburg, Austria). The calculated laccase activity was corrected by the absorbance of a control sample which contained: 0.1 M citrate-phosphate buffer (255 μL, pH 4.7), ABTS (5 μL, 4 mM), and 5 μL of distilled water instead of the enzyme. […]
The effect of the pH and temperature on the LacGL1 laccase activity was determined with a statistically designed, randomized, full factorial experiment as described in FIG. 8. The relative laccase activity was calculated based on the LacGL1 activity at pH 4.7 and 25° C. […]

The nature of series [2]: Substrate specificity of laccase (relative rate of product formation). The format is biochemical. On the procedure:
The laccase activity was measured based on a modified method of Ters et al. (2009). The laccase activity was defined as the amount of the enzyme required to oxidise 1 μmol of ABTS per minute at 25° C., and pH 4.7. The assay mixture contained: 0.1 M citrate-phosphate buffer (255 μL, pH 4.7), ABTS (5 μL, 4 mM (ABTS stock solution)), and pre-diluted laccase (5 μL) that ensured the linear range of Michaelis-Menten kinetics. The oxidation of ABTS was monitored at 420 nm (ε420=36800 M^−1cm^−1) for 2 min. in an Infinite 200 microtiter plate reader (Tecan, Salzburg, Austria). Laccase activity assays on the substrates: hydroquinone (248 nm), 2.6-dimethoxyphenol (470 nm), and guaiacol (436 nm) was done similarly with the substrate concentration as described in Table 2 using the following extinction coefficient values: 17.542 M^−1cm^−1, 35.645 M^−1cm^−1, and 6.400 M^−1cm^−1, respectively (Minussi et al. 2007). The data collection was monitored by the program Tecan i-control version 1.5.14.0 (Tecan, Salzburg, Austria). The calculated laccase activity was corrected by the absorbance of a control sample which contained: 0.1 M citrate-phosphate buffer (255 μL, pH 4.7), ABTS (5 μL, 4 mM), and 5 μL of distilled water instead of the enzyme. All determinations of the laccase activity were performed in duplicates, with an average sample standard deviation less than 5%.
LacGL1 laccase was able to oxidize both ABTS and other phenolic compounds (Table 5) such as: hydroquinone, guaiacol, and 2.6-dimethoxyphenol, however in a slower rate than for ABTS.

B1: LacGL1: Fungal laccase from Ganoderma lucidum CBS229.93 (SEQ ID NO: 5/9), recombinantly expressed in Pichia pastoris X-33 (protein, listed as Ganoderma lucidum)
chain: GIGPKTDLTISNADVAPDGYTRAAVVVNGVFPAPLITGNKGDRFQLNVIDQMTNHTMLKSTSIHWHGFFQKGTNWADGPAFINQCPISSGHSFLYDFQVPDQAGTFWYHSHLSTQYCDGLRGPFVVYDPKDPLKKLYDIDDDSTVITLTDWYHVAARLGPRFPLGSDSTLINGLGRSTTNVTADLAVINVTQGKRYRFRLVSLSCDPNYTFSIDDHNMTVIEADGIETQPVTVNAIQIFSAQRYSFVLTANQTIDNYWIRANPNFGNVGFTDGINSAILRYAGADPVEPTTSQQTTQNLLNEVDLHPFVPKRTPGQPTQGGVDTAINMVFNFNGSNFFINNASFVPPTVPVLLQILSGAQAAQDLLPSGSVYTLPVNKSIELTFPATANAPGAPHPFHLHGHAFAVVRSAGSTVYNYDNPVWRDVVSTGTPAAGDNVTIRFQTDNPGPWFLHCHIDFHLEAGFAVVFAEDPTDTSLANPVPKAWSDLCPTYDALSVDDQ
modifications: mat_peptide (1)..(499) Mature LacGL1 laccase (minus signal peptide)
B1: in series [1] (expressed by recombinant P. pastoris, after sterile filtration, ABTS, 25° C., pH 4.7), the laccase activity amounted to 17.5 U/mL. Moreover, in series [1] (pH 4.7), the “temperature at which activity is highest” value is 40-50 °C. The “temperature optimum (predicted, highest relative activity)” value in series [1] (pH 4.7, ABTS, factorial model 25-55° C.) was 55 °C. In series [1] (substrate ABTS), the “pH optimum (highest relative activity)” value was determined as 4.7. The “Laccase relative rate of product formation” value in series [2] (substrate 2.6-Dimethoxyphenol 1 mM) came to 61%; in series [2] (substrate ABTS 1 mM) it was 100%; in series [2] (substrate Guaiacol 1 mM), 66%; in series [2] (substrate Hydroquinone 1 mM) it was 80%.
